Source: patent US11219627B2, “Clearance of amyloid beta” (priority 2014, dated 2022)
Like-named read-outs stand apart in the source and are kept apart here.

What was measured:
nicotinic receptors = details: cited from earlier work
[1] = tested on: patients with Alzheimer's disease; details: cited from earlier work
mild to moderate AD = details: cited from earlier work; for reduction in loss on the ADAS-cog: mild patients
[2] = tested on: patients with Alzheimer's disease; assay: combined solanezumab phase III studies by standard of care subgroup; type: in vivo, human
Text: The notion that the Alzheimer brain, and the brain which is developing, but has not yet reached the stage of classical Alzheimer's disease with dementia is impaired by both excess Aβ in the region of plaques, and subnormal Aβ concentrations in the ISF bathing healthy tissue away from plaques, has important treatment implications. The clinical outcome measures used to evaluate interventions designed to alter the course of AD depend on the function of intact, healthy synapses. Anti-amyloid agents would not be expected to target plaques and spare healthy tissue, but rather to further decrease ISF Aβ, which is already reduced to about half of normal in patients with AD or classical MCI. […] (J Alz Dis 2013; 33, S111-S120) 3D6, the […] of bapineuzemab, impaired neuronal viability, as have large doses of γ- and β-secretase inhibitors. […] The combined solanezumab phase III studies have been analyzed for solanezumab's performance in patients with and without cholinesterase inhibitor and memantine treatments (called standard of care—SOC). […] ChEls might improve the function of the normal cells, allowing the antibody to show a net benefit because of its binding of Aβ where it is toxic.

CSF Aβ42 = details: single-dose study, dose-dependent; cited from earlier work

Compound | blockade of nicotinic receptors (nicotinic receptors) | LS Mean Change (SE) from Baseline to Week 80 in ADAS-Cog14 Scores ([1]; AChEI + Memantine) | LS Mean Change (SE) from Baseline to Week 80 in ADAS-Cog14 Scores ([1]; AChEI only) | LS Mean Change (SE) from Baseline to Week 80 in ADAS-Cog14 Scores ([1]; Memantine only) | LS Mean Change (SE) from Baseline to Week 80 in ADAS-Cog14 Scores ([1]; No SOC) | reduction of functional decline (ADCS-ADL) (mild to moderate AD; Expedition II) | reduction in loss on the ADAS-cog (mild to moderate AD; Expedition I) | reduction in loss on the ADAS-cog (mild to moderate AD; Expedition II) | decrease of activities of daily living loss (mild to moderate AD; mild subgroups combined) | slowing of cognitive loss (mild to moderate AD; mild subgroups combined) | benefit on the ADAS-cog versus placebo ([2]; cholinesterase inhibitors, without memantine) | excess cognitive deterioration on the ADAS-cog versus placebo ([2]; patients not receiving cholinesterase inhibitors) | excess cognitive deterioration on the ADAS-cog versus placebo ([2]; patients on memantine only) | rise in CSF Aβ42 (CSF Aβ42)
CC12CC3CC(C)(C1)CC(N)(C3)C2 [Memantine] | potent blocker of nicotinic receptors | – | – | – | – | – | – | – | – | – | – | – | – | –
Solanezumab: antibody directed at the central portion of Aβ | – | 9.8 (0.8) | 6.8 (0.5) | 11.2 (1.9) | 6.5 (1.3) | 19% | 42% | 20% | 17% | 34% | 2.1 points | 3.6 points | 4.1 points | up to 35%
